According to patent publication US20230235054A1 (BIOATLA, published 2023):
Changes are numbered by the printed parent chain.

T1: huNectin4-His (human, UniProt Q96NY8 32-349)
T1 construct: Immobilized on the SPR chip; also called humanNectin4; human Nectin4; not shown: His tag
T1 sequence (looked up): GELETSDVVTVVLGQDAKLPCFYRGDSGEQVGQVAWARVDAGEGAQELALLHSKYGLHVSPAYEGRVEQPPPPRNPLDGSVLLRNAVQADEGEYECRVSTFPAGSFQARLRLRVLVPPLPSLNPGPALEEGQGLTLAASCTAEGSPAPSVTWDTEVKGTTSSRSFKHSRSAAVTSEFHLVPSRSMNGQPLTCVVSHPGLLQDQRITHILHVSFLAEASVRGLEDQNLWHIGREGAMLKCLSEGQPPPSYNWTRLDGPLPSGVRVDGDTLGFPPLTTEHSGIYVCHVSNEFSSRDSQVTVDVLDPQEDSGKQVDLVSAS

T2: cyno Nectin-4 on cells (cyno, UniProt A0A2K5WES1 32-510)
T2 construct: whole, on cells; also called HEK293 cells expressing cyno Nectin-4; cyno Nectin-4 cells
T2 sequence: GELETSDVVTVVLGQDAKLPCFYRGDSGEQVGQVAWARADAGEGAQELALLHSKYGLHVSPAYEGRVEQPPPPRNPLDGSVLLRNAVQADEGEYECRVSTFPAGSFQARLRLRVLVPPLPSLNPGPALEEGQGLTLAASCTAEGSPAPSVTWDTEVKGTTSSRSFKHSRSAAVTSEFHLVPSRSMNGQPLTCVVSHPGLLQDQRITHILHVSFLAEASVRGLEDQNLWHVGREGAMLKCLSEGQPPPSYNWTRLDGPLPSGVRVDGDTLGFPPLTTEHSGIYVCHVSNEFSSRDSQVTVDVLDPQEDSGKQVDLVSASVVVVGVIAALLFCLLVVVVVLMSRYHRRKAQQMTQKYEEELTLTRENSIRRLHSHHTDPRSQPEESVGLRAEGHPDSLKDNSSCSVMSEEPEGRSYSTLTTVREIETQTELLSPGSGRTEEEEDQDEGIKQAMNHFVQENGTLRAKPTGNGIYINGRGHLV

T3: human Nectin-4 on cells (human, UniProt Q96NY8 32-510)
T3 construct: whole, on cells; also called HEK293 cells expressing human Nectin-4; T47D cells that express human Nectin-4
T3 sequence (looked up): T2 sequence with A39V, V230I, T437A

B1: BAP-143-wildtype (antibody, V domains shown)
VH: EVQLVESGGGLVQPGGSLRLSCAASGFTFSSYNMNWVRQAPGKGLEWVSYISSSSSTIYYADSVKGRFTISRDNAKNSLSLQMNSLRDEDTAVYYCARAYYYGMDVWGQGTTVTVSS
VL: DIQMTQSPSSVSASVGDRVTITCRASQGISGWLAWYQQKPGKAPKFLIYAASTLQSGVPSRFSGSGSGTDFTLTISSLQPEDFATYYCQQANSFPPTFGGGTKVEIK
notes: 150 kDa used in SPR; also called BAP143-00-00; benchmark (BM)
B2: BAP-143-00-05 (antibody, V domains shown)
VH: B1 VH with R98E
VL: B1 VL
notes: Used as a conjugate with a linker payload (CAB ADC)
B3: BAP-143-00-06 (antibody, V domains shown)
VH: B1 VH with M104D
VL: B1 VL
notes: as for B2
B4: BAP-143-00-01 (antibody, V domains shown)
VH: B1 VH
VL: B1 VL with L33E
notes: as for B2
B5: BAP-143-00-04 (antibody, V domains shown)
VH: B1 VH with M34D
VL: B1 VL
notes: as for B2
B6: BAP-143-00-03 (antibody, V domains shown)
VH: B1 VH
VL: B1 VL with P96D
notes: as for B2
B7: BAP-143-00-02 (antibody, V domains shown)
VH: B1 VH
VL: B1 VL with F94E
notes: as for B2
B8: BAP-143-06-33-03 (antibody, V domains shown)
VH: QVQLVQSGAEVKKPGASVKVSCKASGFTFSSYNMNWVRQARGQRLEWIGYISSSSSTIYYADSVKGRFTISRDNSKNTLYLQMNSLRAEDTAVYYCARAYYYGMDKWGQGTLVTVSS
VL: B1 VL with F94E
notes: as for B2
B9: BAP-143-06-24-16 (antibody, V domains shown)
VH: EVQLVQSGAEVKKPGATVKISCKVSGFTFSSYNMNWIRQSPSRGLEWLGYISSSSSTIYYADSVKGRFTISRDNSKNTLYLQMNSLRAEDTAVYYCARAYYYGDDVWGQGTLVTVSS
VL: B1 VL with R24H
notes: as for B2
B10: BAP-143-06-33-16 (antibody, V domains shown)
VH: B9 VH
VL: B1 VL with L33E
notes: as for B2
B11: BAP-143-07-03-12 (antibody, V domains shown)
VH: B1 VH with V106K
VL: B1 VL with L33E
notes: as for B2

What follows are binders tested against T1, huNectin4-His (assay: SPR, huNectin4-His immobilized, pH 7.4).
Experimental: Binding kinetics of anti-Nectin4 antibodies were measured by surface plasmon resonance using a SPR2/4 instrument (Sierra Sensors, Hamburg, Germany) and flat amine sensor chips. The SPR sensor contained four flow cells (FC1-FC4), each of which was addressed individually or in groups. huNectin4-His was immobilized in FC2, and cynoNectin4-mFc in FC4. No protein was immobilized in FC1 and FC3 which were used as control surfaces for FC2 and FC4, respectively.
All injections were done at a flow rate of 25 μL/min at 25° C. The sensor surface was activated with 1-ethyl-3-(3-dimethylaminopropyl)-carbodiimide (EDC) and N-hydroxysuccinimide (NHS) (200 mM/50 mM) for 480 seconds. HuNectin4-His (2 μg/mL in 10 mM NaAc, pH4.5) was injected for 480s and the surface was inactivated by injecting 1M ethanolamine-HCl for 480s. CynoNectin4 was immobilized using the same conditions as described for huNectin4-His, except that the cynoNectin4 was diluted into 10 mM NaAc buffer having pH 5.0. The control surface was activated and deactivated using the same conditions, but without injecting protein. PBST buffer (PBS pH 7.4 with 0.05% TWEEN20™) was used as running buffer for the surface preparation. The running solution was switched to PBST with 30 mM sodium bicarbonate with the pH adjusted as indicated in the figures before the analyte injections. The instrument was equilibrated with the running solution for one hour before the first analyte injection.
The off-rate was measured for 360s. The chip surface was regenerated after each cycle of interaction analysis by injecting 6 μL of 10 mM glycine (pH 2.0). Flow cells 1 and 3 without immobilized protein were used as control surfaces for reference subtraction.

Binder | Kd | koff | kon
B1 | 0.943 nM |  | 
B2 | 5.09 nM | 0.0062 s⁻¹ | 1.22e+06 M⁻¹ s⁻¹
B3 | 0.406 nM | 0.00143 s⁻¹ | 3.52e+06 M⁻¹ s⁻¹
B4 | 3.89 nM | 0.00267 s⁻¹ | 686000 M⁻¹ s⁻¹
B5 | 1.42 nM | 0.00525 s⁻¹ | 3.71e+06 M⁻¹ s⁻¹
B6 | 2.45 nM | 0.0032 s⁻¹ | 1.31e+06 M⁻¹ s⁻¹

Each binder was assayed against T2, cyno Nectin-4 on cells (assay: FACS, HEK293 cells expressing cyno Nectin-4).

Binder | Ratio (pH 7.4/6.0) of EC50
B1 | 1.7
B7 | 2.3
B2 | 2.5
B3 | 3.2
B4 | 4.1
B5 | 2.1
B6 | 3.6

The binders below were run against T3, human Nectin-4 on cells (assay: FACS, T47D cells).

Binder | Ratio (pH 7.4/6.0) of EC50
B1 | 1.2
B8 | 14.8
B9 | 2.9
B10 | 3.4
B11 | 4.5
B4 | 6.2
